Experimental data taken from patent US20220003772A1, “METHODS OF TREATING CANCER” (priority 2018, published 2022).

Experiments:
[1] = molecular target: T1, free sBCMA (Homo sapiens, UniProt Q02223); assay: Reduction of free sBCMA in serum after infusion (free sBCMA MSD immunoassay); format: in vivo; details: at higher dose levels
T1 construct: the extracellular portion of the BCMA receptor is cleaved from the membrane of the plasma cell surface; from tissue; host or cells: serum of clinical study subjects
T1 sequence (Q02223 1-54 limits assumed): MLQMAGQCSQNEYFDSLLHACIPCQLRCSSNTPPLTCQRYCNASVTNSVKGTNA
Description: In a dose escalation clinical study, 38 subjects were treated with J6M0-MMAF (Part1). The doses ranged from 0.03 mg/kg up to 4.60 mg/kg (0.03 mg/kg, 0.06 mg/kg, 0.12 mg/kg, 0.24 mg/kg, 0.48 mg/kg, 0.96 mg/kg, 1.92 mg/kg, 2.5 mg/kg, 3.4 mg/kg, and 4.6 mg/kg). An expansion cohort of 35 subjects followed at a dose of 3.40 mg/kg (Part2). […] Levels of circulating soluble BCMA (sBCMA) were followed during these studies. Soluble BCMA was measured in serum samples collected at pre- and post-infusion of J6M0-MMAF. Immunoassays (FIG. 1) were used to determine the levels of free sBCMA (FIG. 1a) and J6M0-MMAF-bound sBCMA (FIG. 1b).
Free sBCMA Assay Protocol (FIG. 1a) 1.1. Preparation of Anti-BCMA Antibody Coated Plates (3 μg/ml)
1. An appropriate volume (˜3 mL per plate) of capture coating antibody was prepared—anti-BCMA antibody (J6M0) at 3 μg/mL in DPBS.
2. […]
1. 1×MSD read buffer was prepared as follows:
5 mL of 4×MSD read buffer T (Meso Scale Discovery #R92TC-1) plus 15 mL of Milli-Q water.
3. […], of 1× read buffer was transferred into to each well of the assay plate.
4. The MSD assay plate was read immediately by using the MSD Sector Imager 6000 (Meso Scale Discovery).
The binding of J6M0-MMAF to sBCMA was measured by comparing the post-infusion levels of free sBCMA measured 60 minutes after the start of infusion to those found at pre-infusion. […]

[2] = molecular target: T2, BCMA (Homo sapiens, UniProt Q02223); assay: Dose escalation / expansion clinical study of J6M0-MMAF: response by IMWG criteria; format: in vivo; details: expansion cohort of 35 subjects (Part2), dose 3.40 mg/kg; 21/35; 95% CI 42.1-76.1
T2 construct: BCMA membrane expression is present on a subset of normal late-stage B cells and is universally detected on normal and malignant plasma cells; endogenous in cells; host or cells: plasma/myeloma cells of the clinical study subjects (in vivo)
T2 sequence (Q02223 1-184): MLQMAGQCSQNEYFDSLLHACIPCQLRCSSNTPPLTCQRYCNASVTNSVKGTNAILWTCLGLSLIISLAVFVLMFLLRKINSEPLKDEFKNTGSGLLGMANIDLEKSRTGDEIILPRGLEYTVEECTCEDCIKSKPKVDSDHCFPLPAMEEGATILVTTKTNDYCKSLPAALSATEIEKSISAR

Substance: J6M0-MMAF
- binding of sBCMA by J6M0-MMAF in patients [1]: binds a large fraction of sBCMA
- overall response rate (ORR) by IMWG criteria [2]: 60%
